Assay results taken from article PMC3724782, “The LDL Receptor-Related Protein 1 (LRP1) Regulates the PDGF Signaling Pathway by Binding the Protein Phosphatase SHP-2 and Modulating SHP-2- Mediated PDGF Signaling Events” (PLoS ONE, 2013).
Like-named read-outs stand apart in the source and are kept apart here.

T1: recombinant human SHP-2 (human, UniProt Q06124 1-593)
T1 construct: SHP-2, protein tyrosine phosphatase with two SH2 domains, human, recombinant; The supplier is named only in the SPR methods; source: bought: R&D Systems, 1894-SH-100
T1 sequence (looked up): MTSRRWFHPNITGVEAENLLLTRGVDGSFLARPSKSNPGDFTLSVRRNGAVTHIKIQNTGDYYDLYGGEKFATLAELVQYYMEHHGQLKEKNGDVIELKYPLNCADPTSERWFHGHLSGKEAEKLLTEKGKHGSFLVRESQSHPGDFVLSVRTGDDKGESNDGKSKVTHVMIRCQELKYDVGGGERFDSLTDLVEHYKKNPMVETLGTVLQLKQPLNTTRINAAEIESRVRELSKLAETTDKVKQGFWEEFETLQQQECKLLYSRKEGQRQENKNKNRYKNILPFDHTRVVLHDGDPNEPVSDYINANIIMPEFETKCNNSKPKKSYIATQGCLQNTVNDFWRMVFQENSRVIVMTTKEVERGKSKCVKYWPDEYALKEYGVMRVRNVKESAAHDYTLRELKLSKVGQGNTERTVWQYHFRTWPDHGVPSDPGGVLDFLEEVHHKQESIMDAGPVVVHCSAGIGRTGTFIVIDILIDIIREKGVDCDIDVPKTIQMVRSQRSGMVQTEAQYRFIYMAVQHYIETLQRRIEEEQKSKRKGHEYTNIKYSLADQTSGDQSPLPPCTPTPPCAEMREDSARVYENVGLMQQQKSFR

B1: phosphorylated PDGFRβ kinase domain (domain or fragment, UniProt P09619 558-1106, looked up)
chain: KKPRYEIRWKVIESVSSDGHEYIYVDPMQLPYDSTWELPRDQLVLGRTLGSGAFGQVVEATAHGLSHSQATMKVAVKMLKSTARSSEKQALMSELKIMSHLGPHLNVVNLLGACTKGGPIYIITEYCRYGDLVDYLHRNKHTFLQHHSDKRRPPSAELYSNALPVGLPLPSHVSLTGESDGGYMDMSKDESVDYVPMLDMKGDVKYADIESSNYMAPYDNYVPSAPERTCRATLINESPVLSYMDLVGFSYQVANGMEFLASKNCVHRDLAARNVLICEGKLVKICDFGLARDIMRDSNYISKGSTFLPLKWMAPESIFNSLYTTLSDVWSFGILLWEIFTLGGTPYPELPMNEQFYNAIKRGYRMAQPAHASDEIYEIMQKCWEEKFEIRPPFSQLVLLLERLLGEGYKKKYQQVDEEFLRSDHPAILRSQARLPGFHGLRSPLDTSSVLYTAVQPNEGDNDYIIPLPDPKPEVADEGPLEGSPSLASSTLNEVNTSSTISCDSPLEPQDEPEPEPQLELQVEPEPELEQLPDSGCPAPRAEAEDSFL
modifications: phosphotyrosine (autophosphorylated with ATP and MgCl2; sites not mapped here)
notes: PDGF receptor β (PDGFRβ), kinase domain (KD); as far as I recall the product is a tagged human cytoplasmic fragment reaching to the C-terminus, to be checked with the supplier; also called pPDGFRβ KD; phospho-PDGFRβ KD; source: bought: Millipore (14-463); phosphorylated by incubating the protein with 1 mM ATP and 1 mM MgCl2
B2: unphosphorylated PDGFRβ kinase domain (domain or fragment, UniProt P09619 558-1106, looked up)
chain: B1 chain
notes: PDGF receptor β (PDGFRβ), kinase domain (KD); also called PDGFRβ KD; non-phosphorylated PDGFRβ KD; source: bought: Millipore (14-463)

Target: T1, recombinant human SHP-2
Assay: ELISA; wells coated with SHP-2 (5 µg/mL, TBS pH 8) or BSA; GST:LRP1-ICD or PDGFRβ KD titrated in TBS, 0.5% BSA, 0.05% Tween 20, sodium orthovanadate, overnight at 4°C; detected with anti-GST or anti-PDGFRβ antibody; fit to a single class of sites

| Molecule | Kd | Kd (both partners purified) |
| --- | --- | --- |
| phosphorylated GST:LRP1-ICD (LDL receptor-related protein 1 intracellular domain fused to glutathione S-transferase, tyrosine-phosphorylated) (domain or fragment) | 18 nM |  |
| B1 |  | 7.8 ± 1 nM |
| B2 |  | 326 ± 68 nM |
